The target of one test is T1, LZTR1-FLAG (human, UniProt Q8N653 1-840).
T1 construct: Expressed in HEK 293T, HeLa or U87 cells; used as cell lysate; also called LZTR1 wild type-FLAG; LZTR1 WT; not shown: FLAG tag at the C-terminus
T1 sequence (looked up): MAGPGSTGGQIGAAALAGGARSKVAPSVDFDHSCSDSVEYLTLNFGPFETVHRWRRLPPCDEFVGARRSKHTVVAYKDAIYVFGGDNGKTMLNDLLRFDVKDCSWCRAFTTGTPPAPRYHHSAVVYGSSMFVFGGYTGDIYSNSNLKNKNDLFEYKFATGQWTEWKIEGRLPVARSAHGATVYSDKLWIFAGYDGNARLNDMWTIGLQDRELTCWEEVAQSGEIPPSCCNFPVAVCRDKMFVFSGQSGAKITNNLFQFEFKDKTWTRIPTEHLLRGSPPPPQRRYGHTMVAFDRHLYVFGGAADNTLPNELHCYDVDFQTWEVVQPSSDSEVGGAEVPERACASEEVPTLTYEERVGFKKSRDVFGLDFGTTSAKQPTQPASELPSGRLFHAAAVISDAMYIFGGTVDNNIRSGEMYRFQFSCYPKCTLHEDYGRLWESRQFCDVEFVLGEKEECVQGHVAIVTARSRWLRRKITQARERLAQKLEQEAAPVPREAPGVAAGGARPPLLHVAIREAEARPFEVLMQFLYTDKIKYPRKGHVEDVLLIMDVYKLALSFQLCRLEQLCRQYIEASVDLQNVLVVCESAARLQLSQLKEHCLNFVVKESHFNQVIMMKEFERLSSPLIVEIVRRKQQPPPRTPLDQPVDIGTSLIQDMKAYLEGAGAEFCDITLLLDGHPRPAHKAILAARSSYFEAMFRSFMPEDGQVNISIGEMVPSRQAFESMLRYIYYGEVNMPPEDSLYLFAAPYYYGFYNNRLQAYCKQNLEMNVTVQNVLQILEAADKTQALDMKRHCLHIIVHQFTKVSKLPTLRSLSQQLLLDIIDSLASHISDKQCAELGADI
As to the kind of experiment: IP/MS, LZTR1 wild type-FLAG, U87. The method, boiled down:
(§1)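 Read-out: spectral counts from LC-MS/MS (Orbitrap Fusion) after MaxQuant identification. Variable modifications were Met oxidation, protein N-terminal acetylation and N/Q deamidation.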

In the next test the target is T2, LZTR1 R810W-FLAG (human, UniProt Q8N653 1-840).
T2 construct: Stably expressed in U87 cells by lentivirus; also called LZTR1-FLAG-R810W; LZTR1 RW; not shown: FLAG tag
T2 sequence (looked up): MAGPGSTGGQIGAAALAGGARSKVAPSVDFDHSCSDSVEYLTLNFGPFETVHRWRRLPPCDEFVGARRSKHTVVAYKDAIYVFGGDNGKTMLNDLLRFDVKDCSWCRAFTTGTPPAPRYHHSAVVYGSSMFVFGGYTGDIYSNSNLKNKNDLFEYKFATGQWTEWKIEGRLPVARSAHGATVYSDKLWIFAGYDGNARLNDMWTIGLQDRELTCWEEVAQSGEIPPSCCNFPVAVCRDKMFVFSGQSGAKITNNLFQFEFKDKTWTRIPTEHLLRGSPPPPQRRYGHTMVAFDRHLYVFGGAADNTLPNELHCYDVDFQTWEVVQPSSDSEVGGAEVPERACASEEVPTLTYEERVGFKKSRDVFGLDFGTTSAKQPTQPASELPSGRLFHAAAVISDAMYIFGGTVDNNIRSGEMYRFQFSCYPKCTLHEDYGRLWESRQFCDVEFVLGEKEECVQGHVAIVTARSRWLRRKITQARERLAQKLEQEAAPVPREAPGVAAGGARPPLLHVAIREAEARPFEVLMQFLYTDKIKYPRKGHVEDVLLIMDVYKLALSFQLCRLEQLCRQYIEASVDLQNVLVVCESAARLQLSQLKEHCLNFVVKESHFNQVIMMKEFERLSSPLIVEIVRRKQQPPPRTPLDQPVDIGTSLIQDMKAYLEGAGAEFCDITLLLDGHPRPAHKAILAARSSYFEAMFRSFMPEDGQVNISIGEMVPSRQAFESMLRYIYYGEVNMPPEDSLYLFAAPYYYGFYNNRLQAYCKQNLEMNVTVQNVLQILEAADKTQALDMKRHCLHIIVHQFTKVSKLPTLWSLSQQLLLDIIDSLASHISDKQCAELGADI
As to the kind of experiment: IP/MS, LZTR1 R810W-FLAG, U87. The method, boiled down: as §1

B1: RASA3 (other, human, UniProt Q14644 2-834, looked up)
chain: AVEDEGLRVFQSVKIKIGEAKNLPSYPGPSKMRDCYCTVNLDQEEVFRTKIVEKSLCPFYGEDFYCEIPRSFRHLSFYIFDRDVFRRDSIIGKVAIQKEDLQKYHNRDTWFQLQHVDADSEVQGKVHLELRLSEVITDTGVVCHKLATRIVECQGLPIVNGQCDPYATVTLAGPFRSEAKKTKVKRKTNNPQFDEVFYFEVTRPCSYSKKSHFDFEEEDVDKLEIRVDLWNASNLKFGDEFLGELRIPLKVLRQSSSYEAWYFLQPRDNGSKSLKPDDLGSLRLNVVYTEDHVFSSDYYSPLRDLLLKSADVEPVSASAAHILGEVCREKQEAAVPLVRLFLHYGRVVPFISAIASAEVKRTQDPNTIFRGNSLASKCIDETMKLAGMHYLHVTLKPAIEEICQSHKPCEIDPVKLKDGENLENNMENLRQYVDRVFHAITESGVSCPTVMCDIFFSLREAAAKRFQDDPDVRYTAVSSFIFLRFFAPAILSPNLFQLTPHHTDPQTSRTLTLISKTVQTLGSLSKSKSASFKESYMATFYEFFNEQKYADAVKNFLDLISSSGRRDPKSVEQPIVLKEGFMIKRAQGRKRFGMKNFKKRWFRLTNHEFTYHKSKGDQPLYSIPIENILAVEKLEEESFKMKNMFQVIQPERALYIQANNCVEAKDWIDILTKVSQCNQKRLTVYHPSAYLSGHWLCCRAPSDSAPGCSPCTGGLPANIQLDIDGDRETERIYSLFNLYMSKLEKMQEACGSKSVYDGPEQEEYSTFVIDDPQETYKTLKQVIAGVGALEQEHAQYKRDKFKKTKYGSQEHPIGDKSFQNYIRQQSETSTHSI
Consider B1, for which the binding result with LZTR1-FLAG and with LZTR1 R810W-FLAG was “binds” each time.

B2: SCYL1 (other, human, UniProt Q96KG9 1-808, looked up)
chain: MWFFARDPVRDFPFELIPEPPEGGLPGPWALHRGRKKATGSPVSIFVYDVKPGAEEQTQVAKAAFKRFKTLRHPNILAYIDGLETEKCLHVVTEAVTPLGIYLKARVEAGGLKELEISWGLHQIVKALSFLVNDCSLIHNNVCMAAVFVDRAGEWKLGGLDYMYSAQGNGGGPPRKGIPELEQYDPPELADSSGRVVREKWSADMWRLGCLIWEVFNGPLPRAAALRNPGKIPKTLVPHYCELVGANPKVRPNPARFLQNCRAPGGFMSNRFVETNLFLEEIQIKEPAEKQKFFQELSKSLDAFPEDFCRHKVLPQLLTAFEFGNAGAVVLTPLFKVGKFLSAEEYQQKIIPVVVKMFSSTDRAMRIRLLQQMEQFIQYLDEPTVNTQIFPHVVHGFLDTNPAIREQTVKSMLLLAPKLNEANLNVELMKHFARLQAKDEQGPIRCNTTVCLGKIGSYLSASTRHRVLTSAFSRATRDPFAPSRVAGVLGFAATHNLYSMNDCAQKILPVLCGLTVDPEKSVRDQAFKAIRSFLSKLESVSEDPTQLEEVEKDVHAASSPGMGGAAASWAGWAVTGVSSLTSKLIRSHPTTAPTETNIPQRPTPEGVPAPAPTPVPATPTTSGHWETQEEDKDTAEDSSTADRWDDEDWGSLEQEAESVLAQQDDWSTGGQVSRASQVSNSDHKSSKSPESDWSSWEAEGSWEQGWQEPSSQEPPPDGTRLASEYNWGGPESSDKGDPFATLSARPSTQPRPDSWGEDNWEGLETDSRQVKAELARKKREERRREMEAKRAERKVAKGPMKLGARKLD
With B2, the binding result in the test with LZTR1-FLAG and in the test with LZTR1 R810W-FLAG was “binds” throughout.

B3: RETSAT (other, human, UniProt Q6NUM9 19-610, looked up)
chain: KVYLGLFSGSSPNPFSEDVKRPPAPLVTDKEARKKVLKQAFSANQVPEKLDVVVIGSGFGGLAAAAILAKAGKRVLVLEQHTKAGGCCHTFGKNGLEFDTGIHYIGRMEEGSIGRFILDQITEGQLDWAPLSSPFDIMVLEGPNGRKEYPMYSGEKAYIQGLKEKFPQEEAIIDKYIKLVKVVSSGAPHAILLKFLPLPVVQLLDRCGLLTRFSPFLQASTQSLAEVLQQLGASSELQAVLSYIFPTYGVTPNHSAFSMHALLVNHYMKGGFYPRGGSSEIAFHTIPVIQRAGGAVLTKATVQSVLLDSAGKACGVSVKKGHELVNIYCPIVVSNAGLFNTYEHLLPGNARCLPGVKQQLGTVRPGLGMTSVFICLRGTKEDLHLPSTNYYVYYDTDMDQAMERYVSMPREEAAEHIPLLFFAFPSAKDPTWEDRFPGRSTMIMLIPTAYEWFEEWQAELKGKRGSDYETFKNSFVEASMSVVLKLFPQLEGKVESVTAGSPLTNQFYLAAPRGACYGADHDLGRLHPCVMASLRAQSPIPNLYLTGQDIFTCGLVGALQGALLCSSAILKRNLYSDLKNLDSRIRAQKKKN
Take B3: the binding result with LZTR1-FLAG and in the test with LZTR1 R810W-FLAG was “binds” each time.

The values above are taken from patent publication US20250262210A1 (TRUSTEES OF COLUMBIA UNIVERSITY IN THE CITY OF NEW YORK, published 2025).
